Source: patent US8962819B2, “Anti-C5 alpha antibodies” (Adienne S.A., priority 2002, dated 2015)
Entries after “also recorded” stand apart in the source; their conditions may differ.

What was measured:
C5 alpha chain = target: T1, C5 alpha chain (Homo sapiens, UniProt P01031); assay: Immunoblotting on separated C5 chains; type: binding; details: 100 ng chain, FIG. 2 lane 1
T1 construct: Lane 1: 100 ng of C5 alpha chain; lane 2: 100 ng of beta chain; purchased Quidel
Method: (§1) The alpha and beta chains of C5 were electrophoretically separated by means of SDS-PAGE in 10% polyacrylamide and then transferred onto nitrocellulose. […] Lane 1: 100 ng of C5 alpha chain; lane 2: 100 ng of beta chain; lane 3: mixture of the two chains. […] It can be seen that scFv TSA-12/22 recognises the alpha chain of C5 in lane 1, but not the beta chain in lane 2.
(§2) Purified proteins. Purified components C4 to C9 were purchased from Quidel (Saint Diego, Calif.) and the human recombinant C5a component was purchased from SIGMA-ALDRICH® S.r.1. (Milan, Italy). C5 alpha and beta subunits were obtained by incubating 50 μg of C5 diluted in 0.55 M TRIS-HCl pH 8.1 containing DTT (0.02 M) for 30 min at room temperature (RT), followed by treatment with iodoacetamide (0.12 M) for 1 hour at RT. Alpha and beta chains were purified by gel filtration on Superose 12 (Pharmacia Biotech, Milan, Italy) in Fast Protein Liquid Chromatography (FPLC) and purity was assessed by SDS-PAGE in non-reducing conditions.
(§3) It was first characterised, by means of the Western-blotting technique, whether the TS-A12/22 antibody recognises the alpha or beta of subunit of the C5 complement component prepared as described in Materials. Briefly the two subunits were electrophoresed in separate wells and transferred on nitrocellulose membranes. A solution containing Tris 50 mM pH 7.6, 0.5 M NaCl and 4% skimmed powder milk was used to block non-specific sites for 1 hour at 37° C. […] The enzymatic reaction was developed with blue tetrazolium and 5-bromo-4-chlorine-3-indolil phosphate (SIGMA-ALDRICH®, 0.30 mg/ml) diluted in 0.1 M Tris-HCl pH 9.5 containing 0.1 M NaCl and 5 mM MgCl2. Rainbow RPN 756 ([…]™ Italy (a trademark of General Electric Healthcare Limited)) were used as molecular weight markers.

C5 beta chain = target: T2, C5 beta chain (Homo sapiens, UniProt P01031); assay: Immunoblotting on separated C5 chains; type: binding; details: 100 ng chain, FIG. 2 lane 2
T2 construct: Lane 1: 100 ng of C5 alpha chain; lane 2: 100 ng of beta chain; purchased Quidel
T2 sequence (P01031 19-673 limits assumed): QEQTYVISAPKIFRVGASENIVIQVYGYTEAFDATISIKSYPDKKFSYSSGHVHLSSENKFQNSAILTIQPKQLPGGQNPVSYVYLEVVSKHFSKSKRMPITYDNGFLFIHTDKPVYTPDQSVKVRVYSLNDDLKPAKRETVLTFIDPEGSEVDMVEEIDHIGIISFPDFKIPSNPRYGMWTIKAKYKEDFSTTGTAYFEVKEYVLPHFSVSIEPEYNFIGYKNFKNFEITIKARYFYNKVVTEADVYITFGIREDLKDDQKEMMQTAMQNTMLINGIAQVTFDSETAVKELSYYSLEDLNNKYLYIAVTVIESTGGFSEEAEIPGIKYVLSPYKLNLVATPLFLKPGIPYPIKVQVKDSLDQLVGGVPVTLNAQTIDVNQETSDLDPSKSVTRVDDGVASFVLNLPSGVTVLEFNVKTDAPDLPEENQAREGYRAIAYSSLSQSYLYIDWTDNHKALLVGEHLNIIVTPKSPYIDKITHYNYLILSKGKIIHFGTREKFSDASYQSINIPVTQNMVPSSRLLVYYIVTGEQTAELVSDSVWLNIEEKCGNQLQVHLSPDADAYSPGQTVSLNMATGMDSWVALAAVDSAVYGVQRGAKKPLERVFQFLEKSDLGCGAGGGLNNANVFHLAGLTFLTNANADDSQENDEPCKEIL
Method: as §1, §2, §3

factor C5 = target: T3, factor C5 (Homo sapiens, UniProt P01031); assay: Surface plasmon resonance (BIACORE 2000) on C5 immobilized on chip; type: binding; details: TS-A12/22 versus TS-A12 after VL chain shuffling
T3 construct: C5 alpha and beta subunits were obtained by incubating 50 μg of C5; purchased Quidel
Method: The binding affinity of the Tsa-12 antibody, purified by means of FPLC on Superdex 75 (Pharmacia), for factor C5 was measured by means of BIACORE™ 2000 (a system that generates unique data on the interactions between proteins and other molecules). The microchip (CM5, Biacore) was prepared by direct conjugation of the C5 antigen with amines (20 μg/ml in 10 mM Sodium Acetate pH 4.5). The final level of immobilisation turned out to be approximately 1000 RU (Resonance Units). Association and dissociation of antibody molecules from the bio-chip were measured using an optical detection system (Surface Plasmon Resonance). The analysis was carried out at 25° C., at a flow of 15 μl/min, using 4 different scFv concentrations in the range comprised between 100-300 nM, in PBS, 0.005% P20 (Biacore). The binding curves were interpolated 1:1 according to the model of Langmuir, using the dedicated software termed BIAevaluation (version 3.5) with correction for the mass transfer. In order to increase the affinity, the TS-A12 antibody was subjected to substitution (“shuffling”) of the VL light chains. For this purpose the phagemid DNA was cut with BssHII and SaII to excise the VL region. This region was substituted with all the repertoire of VL chains of a preimmune library (Sblattero, D., and Bradbury A., 2000, Nat. Biotechnol. 18:75) that was prepared with same enzymes. […]

rat joint = assay: Rat model of antigen-induced (BSA) arthritis, intra-articular scFv; type: in vivo
Method: Polymorphonuclear Leukocytes (PMN), isolated from intra-articular wash out of rats with arthritis induced by instillation of BSA (mBSA), were incubated with antibody TS-A12/22 or with an unrelated antibody, as described in example 10.
Saline solution: control without induced arthritis; mBSA: BSA-induced arthritis, untreated; unrelated: BSA-induced arthritis, treated with unrelated scFv antibody; Ts-a12/22: BSA-induced arthritis, treated with the antibody of the invention.
Histological sections of joints from rats treated with intra-articular injection of saline (A), BSA (B), BSA with TS-A12/22 (C) and BSA with the unrelated antibody (D) were analysed by immunofluorescence for the presence of complement components C3 and C9, as described in example 10.
In order to test the effect of the TS-A12/22 antibody in vivo, the influx of PMN was measured in the rat joint injected with BSA, BSA and TS-A12/22 or BSA and unrelated antibody. […] Moreover the deposition of the C3 and C9 complement components was checked on a histological section of the joint of the back paw of treated rats, by immunofluorescence with specific antisera and fluorescein-conjugated secondary antibody (FIG. 7). […] It was thus confirmed that the TS-A12/22 antibody inhibits the complement cascade at a step intermediate between C3 and C9 and therefore at the level of the conversion of C5 to C5a+C5b.

T1 sequence (P01031 678-1676 limits assumed): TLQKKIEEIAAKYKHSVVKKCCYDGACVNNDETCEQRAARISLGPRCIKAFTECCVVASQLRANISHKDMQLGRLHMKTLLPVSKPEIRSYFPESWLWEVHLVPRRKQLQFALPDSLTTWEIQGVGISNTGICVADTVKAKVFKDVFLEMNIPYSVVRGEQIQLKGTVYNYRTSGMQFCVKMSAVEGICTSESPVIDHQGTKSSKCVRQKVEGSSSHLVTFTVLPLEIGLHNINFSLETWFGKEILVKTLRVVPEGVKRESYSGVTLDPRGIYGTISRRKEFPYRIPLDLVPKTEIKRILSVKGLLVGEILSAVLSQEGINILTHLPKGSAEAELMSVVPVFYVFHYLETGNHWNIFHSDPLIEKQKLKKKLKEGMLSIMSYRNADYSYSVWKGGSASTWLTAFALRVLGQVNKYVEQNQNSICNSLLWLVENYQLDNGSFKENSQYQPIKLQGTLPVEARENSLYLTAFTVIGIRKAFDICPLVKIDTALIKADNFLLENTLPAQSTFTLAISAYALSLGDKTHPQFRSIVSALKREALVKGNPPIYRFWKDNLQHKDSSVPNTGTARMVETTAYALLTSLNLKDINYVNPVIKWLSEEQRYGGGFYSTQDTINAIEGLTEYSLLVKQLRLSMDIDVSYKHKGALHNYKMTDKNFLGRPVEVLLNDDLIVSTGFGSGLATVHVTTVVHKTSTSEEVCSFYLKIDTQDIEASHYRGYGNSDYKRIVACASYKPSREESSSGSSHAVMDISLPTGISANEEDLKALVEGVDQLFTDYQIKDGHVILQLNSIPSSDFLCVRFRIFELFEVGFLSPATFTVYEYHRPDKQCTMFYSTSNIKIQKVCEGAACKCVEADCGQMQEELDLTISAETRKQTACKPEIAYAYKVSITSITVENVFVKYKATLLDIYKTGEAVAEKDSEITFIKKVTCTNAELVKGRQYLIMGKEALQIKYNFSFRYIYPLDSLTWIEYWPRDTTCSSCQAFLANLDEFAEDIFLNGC
T3 sequence (P01031 678-1676 limits assumed, one chain of several): as the sequence (P01031 678-1676 limits assumed) above

B1: TS-A12/22: anti-C5 scFv obtained from TS-A12 by VL chain shuffling; VH3/V-48 and Vλ3/V2-14; amino acid sequence SEQ ID NO:6 (protein, listed as Homo sapiens)
scFv: DIRMTQSPDSLAVSLGERATINCKSSQSVLYSSNNKNYLAWYQQKPGQPPKLLIYWASTRESGVPDRFSGSGSGTDFTLTISSLQAEDVAVYYCQQYYSTPQLTFGGRTKVDIKSGGSTITSYNVYYTKLSSSGTQVQLQQSEGGVVQPGRSLRLSCAASGFTFSSYGMNWVRQAPGKGLEWVSYISSSSSTIYYADSVKGRFTISRDNSKNTLYLQMNSLRAEDTAVYYCARGPGMDVWGQGTTVTVSS
- recognition of C5 alpha sub-unit (C5 alpha chain): recognises
- recognition of C5 beta sub-unit (C5 beta chain): does not recognise
- recognition of C5 beta sub-unit (C5 beta chain; listed as TSA-12/22): not
- increment of molar affinity (factor C5): approximately one order of magnitude
- deposition of C3 in the joint (immunofluorescence) (rat joint; FIG. 7): remained unchanged; also recorded: does not affect
- deposition of C9 in the joint (immunofluorescence) (rat joint; FIG. 7): strongly inhibited; also recorded: significantly reduces
- number of PMN in the joint wash out liquid (rat joint; versus BSA or BSA and unrelated antibody, FIG. 6): significantly reduced; also recorded: drastically reduced
